Read-outs that look alike come from different tables or passages of the source.
Legend:
mCADM3-GST [1] = target: T1, mCADM3-GST (mouse); assay: SPR (Biacore T-100), antibody captured, mCADM3-GST as analyte
T1 construct: also called extracellular domain of mouse CADM3 to which GST was added at the C-terminal side; mouse CADM3-GST
Experimental: (§1) The affinity of the anti-CADM3 antibodies produced in Example 2 for human CADM3 and mouse CADM3 was measured using Biacore T-100 (GE Healthcare). Each of the antibodies was immobilized on a […] sensor chip using a Human antibody Capture kit, and the binding ability was evaluated using hCADM3-GST and mCADM3-GST produced in Example 4 as analytes.
(§2) With respect to the produced humanized anti-CADM3 antibodies, affinity for CADM3 by surface plasmon resonance detection was evaluated by the same procedure as in Example 6.

mouse CADM3 [2] = target: T2, mouse CADM3 (mouse, UniProt Q99N28 23-396); assay: flow cytometry, 10 ug/mL, mouse CADM3/Expi293F vs parent Expi293F cells
T2 construct: Full-length gene expressed transiently on Expi293F cells; also called mouse CADM3/Expi293F cells; Mouse CADM3-expressing cells
T2 sequence: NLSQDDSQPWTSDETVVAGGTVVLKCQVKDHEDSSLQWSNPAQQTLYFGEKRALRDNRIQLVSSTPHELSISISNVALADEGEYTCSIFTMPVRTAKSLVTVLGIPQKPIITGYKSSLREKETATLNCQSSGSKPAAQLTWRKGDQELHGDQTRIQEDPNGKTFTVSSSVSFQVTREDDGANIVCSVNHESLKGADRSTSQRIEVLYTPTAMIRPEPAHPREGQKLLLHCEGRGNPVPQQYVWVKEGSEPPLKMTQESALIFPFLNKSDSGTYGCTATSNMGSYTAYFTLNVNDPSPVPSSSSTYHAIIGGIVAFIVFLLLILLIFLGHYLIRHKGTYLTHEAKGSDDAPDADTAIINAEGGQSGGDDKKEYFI

human CADM3 [3] = target: T3, human CADM3 (human, UniProt Q8N126 25-398); assay: flow cytometry, 10 ug/mL, human CADM3/Expi293F vs parent Expi293F cells
T3 construct: Full-length gene expressed transiently on Expi293F cells; also called cell adhesion molecule 3; human CADM3/Expi293F cells
T3 sequence: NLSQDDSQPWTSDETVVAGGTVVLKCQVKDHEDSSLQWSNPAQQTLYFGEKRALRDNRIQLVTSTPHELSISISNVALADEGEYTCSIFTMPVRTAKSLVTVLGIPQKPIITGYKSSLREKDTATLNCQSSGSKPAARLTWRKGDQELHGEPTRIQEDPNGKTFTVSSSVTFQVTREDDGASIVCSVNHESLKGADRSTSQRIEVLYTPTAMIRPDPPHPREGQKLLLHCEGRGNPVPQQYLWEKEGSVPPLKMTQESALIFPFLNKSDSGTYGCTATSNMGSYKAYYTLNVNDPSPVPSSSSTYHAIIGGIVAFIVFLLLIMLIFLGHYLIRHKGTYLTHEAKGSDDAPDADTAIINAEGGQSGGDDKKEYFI
Experimental: By using the cells, the reactivity of the antibodies produced in Example 2 with the CADM3-expressing cells was analyzed by a fluorescence activated cell sorting (FACS) method according to the following procedure.
(§3) After washing with SB, the cells were suspended in SB, and the fluorescence intensity of each cell was measured using a flow cytometer FACS CANTO II (manufactured by Becton, Dickinson and Company). Note that as a negative control, 10 μg/mL of the anti-AVM antibody was used.
(§4) The detection results were analyzed, and a mean fluorescence intensity (MFI) was calculated using a geometric mean. Further, with respect to the MFI when the concentration of each antibody was 10 μg/mL, the ratio of the MFI (mean fluorescence intensity ratio) between the human CADM3/Expi293F cells and the Expi293F cells (parent cell line) was calculated.

hCADM3-GST [4] = target: T4, hCADM3-GST (human); assay: SPR (Biacore T-100), antibody captured, hCADM3-GST as analyte
T4 construct: also called extracellular domain of human CADM3 to which GST was added at the C-terminal side; human CADM3-GST
Experimental: as §1, §2

hCADM3-GST [5] = target: T4, hCADM3-GST; assay: as above; remark: listed apart in the source
Experimental: as §1
(§5) The obtained sensorgram was analyzed with BIA evaluation software, and the dissociation constant (KD value) was calculated.

mCADM3-GST [6] = target: T1, mCADM3-GST; assay: SPR (Biacore T-100), antibody captured, mCADM3-GST as analyte; remark: listed apart in the source
Experimental: as §1, §5

mouse CADM3 [7] = target: T2, mouse CADM3; assay: flow cytometry, 10 ug/mL, mouse CADM3/Expi293F vs parent Expi293F cells; remark: listed apart in the source
Experimental: as §3, §4
Further, also with respect to AVM IgG4PE(R409K)_iCADM3_3R1-L5 dVHH, AVM IgG4PE(R409K)_iCADM3_3R1-L8 dVHH, AVM IgG4PE(R409K)_iCADM3_3R1-L10 dVHH, and AVM IgG4PE(R409K)_iCADM3_3R1-L11 dVHH, reactivity with the Expi293F cells, the human CADM3/Expi293F cells, and the mouse CADM3/Expi293F cells was analyzed by the same procedure, and the results are shown in Table 5.

mouse CADM3 [8] = target: T2, mouse CADM3; assay: as above; remark: listed apart in the source
Experimental: as §3, §4
(§6) With respect to the produced humanized anti-CADM3 VHH-Fc antibodies, reactivity with Expi293F cells, human CADM3/Expi293F cells, and mouse CADM3/Expi293F cells was analyzed by the same procedure as in Example 3.

human CADM3 [9] = target: T3, human CADM3; assay: flow cytometry, 10 ug/mL, human CADM3/Expi293F vs parent Expi293F cells; remark: listed apart in the source
Experimental: as §3, §4, §6

Binder | Mean fluorescence intensity ratio (mouse CADM3 [2]) | Mean fluorescence intensity ratio (human CADM3 [3]) | Mean fluorescence intensity ratio (mouse CADM3 [8]) | Mean fluorescence intensity ratio (human CADM3 [9]) | other results
iCADM3_3R1-L8 VHH-hG4PE(R409K) (Fc fusion, VHH-Fc antibody; also called anti-CADM3 VHH-Fc antibody iCADM3_3R1-L8; not shown: Hinge-CH2-CH3 region of the human IgG4 heavy chain constant region (IgG4 variant)) QVQLVESGGGLVQPGGSLRLSCAASGRTFSNYARGWFRQAPGKEREFVAAIDYSGGSTNYADSAKGRFTISRDNAKNTVYLQMNSLKPGDTAVYYCAAPASRRPSWDADGYDYWGQGTQVTVSS | 8.2 | 5.84 | – | – | Kd (mCADM3-GST [1]): 4.39 nM; koff (mCADM3-GST [1]): 0.00063 s⁻¹; kon (mCADM3-GST [1]): 140000 M⁻¹ s⁻¹; Kd (hCADM3-GST [4]): 12.5 nM; koff (hCADM3-GST [4]): 0.00051 s⁻¹; kon (hCADM3-GST [4]): 41000 M⁻¹ s⁻¹
CADM3458 hG4PE(R409K) (antibody, V domains shown, Human IgG4 variant (S228P, L235E, R409K), vector pCI-hKG4PE(R409K)) VH: EVQLVESGGGVVQPGRSLRLSCAASGFTFSRYGIHWVRQAPGKGLEWVAVIYSGGNTDYADSVKGRFTISRDNSKNTVYLQMNSLRAEDTAVYYCASRRVVPGVIDYFDSWGQGTLVTVSS VL: not shown | 5.4 | 5.7 | – | – | binding result (hCADM3-GST [5]): binds; binding result (mCADM3-GST [6]): binds
CADM3501 hG4PE(R409K) (antibody, V domains shown, Human IgG4 variant (S228P, L235E, R409K), vector pCI-hKG4PE(R409K)) VH: EVQLVESGGGLVQPGGALRLSCSASGFTFSGYWMHWVRQAPGKGLEWVSQISSSGTIIDSADFVKGRFAVSRDNAKDLLYLQMNSLRADDTAVYYCARGPLAKNGFDIWGQGTMVTVSS VL: not shown | 36.1 | 44.9 | – | – | binding result (hCADM3-GST [5]): binds; binding result (mCADM3-GST [6]): binds
AVM IgG4PE(R409K)_iCADM3_3R1-L5 dVHH (bispecific antibody, also called anti-AVM-IgG4-CADM3 VHH bispecific antibody) heavy: not shown light: QFVLSQPNSVSTNLGSTVKLSCKRSTGNIGSNYVSWYQQHEGRSPTTMIYRDDKRPDGVPDRFSGSIDRSSDSALLTINNVQTEDEADYFCQSYSSGINIFGGGTKLTVLGQPKAAPSVTLFPPSSEELQANKATLVCLISDFYPGAVTVAWKADSSPVKAGVETTTPSKQSNNKYAASSYLSLTPEQWKSHRSYSCQVTHEGSTVEKTVAPTECS | – | – | – | – | Mean fluorescence intensity ratio (mouse CADM3 [7]): 1.96
AVM IgG4PE(R409K)_iCADM3_3R1-L8 dVHH (bispecific antibody, also called anti-AVM-IgG4-CADM3 VHH bispecific antibody) heavy: not shown light: QFVLSQPNSVSTNLGSTVKLSCKRSTGNIGSNYVSWYQQHEGRSPTTMIYRDDKRPDGVPDRFSGSIDRSSDSALLTINNVQTEDEADYFCQSYSSGINIFGGGTKLTVLGQPKAAPSVTLFPPSSEELQANKATLVCLISDFYPGAVTVAWKADSSPVKAGVETTTPSKQSNNKYAASSYLSLTPEQWKSHRSYSCQVTHEGSTVEKTVAPTECS | – | – | – | – | Mean fluorescence intensity ratio (mouse CADM3 [7]): 3.65
AVM IgG4PE(R409K)_iCADM3_3R1-L10 dVHH (bispecific antibody, also called anti-AVM-IgG4-CADM3 VHH bispecific antibody) heavy: not shown light: QFVLSQPNSVSTNLGSTVKLSCKRSTGNIGSNYVSWYQQHEGRSPTTMIYRDDKRPDGVPDRFSGSIDRSSDSALLTINNVQTEDEADYFCQSYSSGINIFGGGTKLTVLGQPKAAPSVTLFPPSSEELQANKATLVCLISDFYPGAVTVAWKADSSPVKAGVETTTPSKQSNNKYAASSYLSLTPEQWKSHRSYSCQVTHEGSTVEKTVAPTECS | – | – | – | – | Mean fluorescence intensity ratio (mouse CADM3 [7]): 1.78
CADM3432 hG4PE(R409K) (antibody, V domains shown, Human IgG4 variant (S228P, L235E, R409K), vector pCI-hKG4PE(R409K)) VH: QVQLQQSGPGLVKASQTLSLTCAISGDSVSSRSAAWDWIRQSPSRGLEWLGRTYYRSTWYNDYASSVRSRISINPDTSKNQFSLQLNSVTPEDTAVYYCVRANRKLPAPGQHFYYGMDVWGQGTTVTVSS VL: not shown | 14.6 | 14.7 | – | – | binding result (hCADM3-GST [5]): binds; binding result (mCADM3-GST [6]): binds
CADM3448 hG4PE(R409K) (antibody, V domains shown, Human IgG4 variant (S228P, L235E, R409K), vector pCI-hKG4PE(R409K)) VH: QVQLQQSGPGLVKPAQTLSLTCAISGDSVSSNSVAWNWVRQSPSRGLEWLGRTYYRSQWYNDYAGSVRSRITISADTSKNQFSLQLNSVTPEDTALYYCVRANRKLPAPGQHFYYGMDVWGQGTTVTVSS VL: not shown | 10.4 | 9.4 | – | – | binding result (hCADM3-GST [5]): binds; binding result (mCADM3-GST [6]): binds
iCADM3_3R1-L11_02 VHH-hG4PE(R409K) (Fc fusion, also called iCADM3-3R1-L11_02 humanized antibody; not shown: Hinge-CH2-CH3 region of the human IgG4 heavy chain constant region (IgG4 variant)) EVQLVESGGGLIQPGGSLRLSCAASGSTVSFNAMGWYRQAPGKGRVLVAVITSGGYTNYADSVKGRFTISRDNSKNTVYLQMNSLRAEDTAVYYCNAEGVYSDYVIMNYWGQGTLVTVSS | – | – | 27.9 | 12.4 | –
iCADM3_3R1-L11_06 VHH-hG4PE(R409K) (Fc fusion, also called iCADM3-3R1-L11_06 humanized antibody; not shown: Hinge-CH2-CH3 region of the human IgG4 heavy chain constant region (IgG4 variant)) QVQLVESGGGLVQAGGSLRLSCAASGSIFSFNAMGWYRQAPGKQRGLVAVITSGGYTNYADSVKGRFTISRDNSKNTVFLQMNSLRAEDTAVYYCNAEGVYSDYVIMNYWGQGTLVTVSS | – | – | 42.2 | 33 | –
iCADM3_3R1-L11_01 VHH-hG4PE(R409K) (Fc fusion, also called iCADM3-3R1-L11_01 humanized antibody; not shown: Hinge-CH2-CH3 region of the human IgG4 heavy chain constant region (IgG4 variant)) EVQLVESGGGLIQPGGSLRLSCAASGSTVSFNAMGWYRQAPGKGLGLVAVITSGGYTNYADSVKGRFTISRDNSKNTLFLQMNSLRAEDTAVYYCNAEGVYSDYVIMNYWGQGTLVTVSS | – | – | 12.5 | 12.2 | –
iCADM3_3R1-L11_05 VHH-hG4PE(R409K) (Fc fusion, also called iCADM3-3R1-L11_05 humanized antibody; not shown: Hinge-CH2-CH3 region of the human IgG4 heavy chain constant region (IgG4 variant)) EVQLVESGGGLIQPGGSLRLSCAASGSIFSFNAMGWYRQAPGKGRVLVAVITSGGYTNYADSVKGRFTISRDNSKNTVYLQMNSLRAEDTAVYYCNAEGVYSDYVIMNYWGQGTLVTVSS | – | – | 24.6 | 11.1 | –
iCADM3_3R1-L11_03 VHH-hG4PE(R409K) (Fc fusion, also called iCADM3-3R1-L11_03 humanized antibody; not shown: Hinge-CH2-CH3 region of the human IgG4 heavy chain constant region (IgG4 variant)) EVQLVESGGGLIQPGGSLRLSCAASGSTVSFNAMGWYRQAPGKQRGLVSVITSGGYTNYADSVKGRFTISRDNSKNTVYLQMNSLRAEDTAVYYCNAEGVYSDYVIMNYWGQGTLVTVSS | – | – | 33.8 | 24.4 | –
iCADM3_3R1-L11_04 VHH-hG4PE(R409K) (Fc fusion, also called iCADM3-3R1-L11_04 humanized antibody; not shown: Hinge-CH2-CH3 region of the human IgG4 heavy chain constant region (IgG4 variant)) EVQLVESGGGLIQAGGSLRLSCAASGSIVSFNAMGWYRQAPGKQRGLVAVITSGGYTNYADSVKGRFTISRDNSKNTLFLQMNSLRAEDTAVYYCNAEGVYSDYVIMNYWGQGTLVTVSS | – | – | 26.7 | 22.5 | –
